Measurements: patent EP0699075B1

How the values were obtained:
[1] = target: purified recombinant soluble tissue factor (UniProt P13726); test: cell-based or functional assay
[2] = target: cell-surface tissue factor on rat vascular smooth muscle cells (rat) (UniProt P42533); test: cell-based or functional assay
Sequence of UniProt P42533 (P42533 29-295): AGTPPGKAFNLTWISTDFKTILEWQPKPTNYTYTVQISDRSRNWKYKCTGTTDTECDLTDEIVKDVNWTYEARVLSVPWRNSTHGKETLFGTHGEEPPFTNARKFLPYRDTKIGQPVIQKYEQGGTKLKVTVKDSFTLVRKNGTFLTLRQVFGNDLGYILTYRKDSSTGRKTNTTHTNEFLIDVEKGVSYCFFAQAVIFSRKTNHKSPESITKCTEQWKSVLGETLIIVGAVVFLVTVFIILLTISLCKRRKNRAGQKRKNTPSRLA

Sequence of UniProt P13726 (P13726 33-251 limits assumed): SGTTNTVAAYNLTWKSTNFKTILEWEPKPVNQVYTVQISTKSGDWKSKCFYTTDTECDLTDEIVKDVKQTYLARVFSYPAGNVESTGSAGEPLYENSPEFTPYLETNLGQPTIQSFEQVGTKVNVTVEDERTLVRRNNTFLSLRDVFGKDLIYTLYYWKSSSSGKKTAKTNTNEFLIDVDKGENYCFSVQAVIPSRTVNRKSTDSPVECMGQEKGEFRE

DEGR-Factor VIIa (enzyme)
OD405, Factor Xa chromogenic activity (S-2222), DEGR-Factor VIIa 0 nM with 100 nM Factor VIIa and soluble tissue factor (cell read as 0 | 0.810) [1]: 0.81 OD405
OD405, Factor Xa chromogenic activity (S-2222), DEGR-Factor VIIa 5 nM with 100 nM Factor VIIa and soluble tissue factor (cell read as 5 | 0.750) [1]: 0.75 OD405
OD405, Factor Xa chromogenic activity (S-2222), DEGR-Factor VIIa 10 nM with 100 nM Factor VIIa and soluble tissue factor (cell read as 10 | 0.609) [1]: 0.609 OD405
OD405, Factor Xa chromogenic activity (S-2222), DEGR-Factor VIIa 20 nM with 100 nM Factor VIIa and soluble tissue factor (cell read as 20 | 0.296) [1]: 0.296 OD405
OD405, Factor Xa chromogenic activity (S-2222), DEGR-Factor VIIa 40 nM with 100 nM Factor VIIa and soluble tissue factor (cell read as 40 | 0.167) [1]: 0.167 OD405
OD405, Factor Xa chromogenic activity (S-2222), DEGR-Factor VIIa 80 nM with 100 nM Factor VIIa and soluble tissue factor (cell read as 80 | 0.083) [1]: 0.083 OD405
OD405, Factor Xa chromogenic activity (S-2222), DEGR-Factor VIIa 160 nM with 100 nM Factor VIIa and soluble tissue factor (cell read as 160 | 0.055) [1]: 0.055 OD405
OD405, Factor Xa chromogenic activity (S-2222) on rat smooth muscle cells, DEGR-Factor VIIa 0.00 nM coincubated with 100 nM Factor VIIa [2]: 0.208 OD405
OD405, Factor Xa chromogenic activity (S-2222) on rat smooth muscle cells, DEGR-Factor VIIa 0.39 nM coincubated with 100 nM Factor VIIa [2]: 0.176 OD405
OD405, Factor Xa chromogenic activity (S-2222) on rat smooth muscle cells, DEGR-Factor VIIa 1.56 nM coincubated with 100 nM Factor VIIa [2]: 0.116 OD405
OD405, Factor Xa chromogenic activity (S-2222) on rat smooth muscle cells, DEGR-Factor VIIa 6.25 nM coincubated with 100 nM Factor VIIa [2]: 0.073 OD405
OD405, Factor Xa chromogenic activity (S-2222) on rat smooth muscle cells, DEGR-Factor VIIa 25.00 nM coincubated with 100 nM Factor VIIa [2]: 0.026 OD405
OD405, Factor Xa chromogenic activity (S-2222) on rat smooth muscle cells, DEGR-Factor VIIa 100.00 nM coincubated with 100 nM Factor VIIa [2]: 0.014 OD405
OD405, Factor Xa chromogenic activity (S-2222) on serum-stimulated rat smooth muscle cells, 10 nM Factor VIIa + 100 nM DEGR-Factor VIIa [2]: 0.073 OD405
inhibition of chromogenic activity at a 1:1 molar ratio of DEGR-Factor VIIa:Factor VIIa on rat smooth muscle cells [2]: 95%

recombinant human Factor VIIa (enzyme)
OD405, Factor Xa chromogenic activity (S-2222) on PDGF-BB-stimulated rat smooth muscle cells, 10 nM Factor VIIa, cells washed before Factor X was added [2]: 0.36 OD405
OD405, Factor Xa chromogenic activity (S-2222) on rat smooth muscle cells stimulated with 10% FCS, 10 nM Factor VIIa, cells washed before Factor X was added [2]: 0.342 OD405
OD405, Factor Xa chromogenic activity (S-2222) on rat smooth muscle cells, Factor VIIa 0.10 nM [2]: 0.005 OD405
OD405, Factor Xa chromogenic activity (S-2222) on rat smooth muscle cells, Factor VIIa 0.39 nM [2]: 0.025 OD405
OD405, Factor Xa chromogenic activity (S-2222) on rat smooth muscle cells, Factor VIIa 1.56 nM [2]: 0.058 OD405
OD405, Factor Xa chromogenic activity (S-2222) on rat smooth muscle cells, Factor VIIa 6.25 nM [2]: 0.111 OD405
OD405, Factor Xa chromogenic activity (S-2222) on rat smooth muscle cells, Factor VIIa 25.00 nM [2]: 0.154 OD405
OD405, Factor Xa chromogenic activity (S-2222) on rat smooth muscle cells, Factor VIIa 100.00 nM [2]: 0.208 OD405
OD405, Factor Xa chromogenic activity (S-2222) on serum-stimulated rat smooth muscle cells, 10 nM Factor VIIa alone [2]: 0.342 OD405
OD405, Factor Xa chromogenic activity (S-2222) on unstimulated rat smooth muscle cells (Intrinsic), 10 nM Factor VIIa, cells washed before Factor X was added [2]: 0.247 OD405
